Measured values reported in article PMC4664265, “Substrate-Induced Dimerization of Engineered Monomeric Variants of Triosephosphate Isomerase from Trichomonas vaginalis” (PLoS ONE, 2015).

What was measured:
[1] = target: TvTIM1 I45G (Trichomonas vaginalis) (UniProt A2EGX9)
[2] = target: TvTIM1 I45G (Trichomonas vaginalis) (UniProt A2EGX9); assay: SEC; gel filtration at 7 mg/ml (~260 μM) in Tris pH 7.4, 100 mM NaCl; dimer to monomers
[3] = target: TvTIM1 I45F (Trichomonas vaginalis) (UniProt A2EGX9)
[4] = target: TvTIM1 I45Y (Trichomonas vaginalis) (UniProt A2EGX9)
[5] = target: TvTIM1 I45G-Q52C double mutant (Trichomonas vaginalis) (UniProt A2EGX9)
[6] = target: TvTIM1 I45A (Trichomonas vaginalis) (UniProt A2EGX9)
[7] = target: TvTIM1 I45A (Trichomonas vaginalis) (UniProt A2EGX9); assay: AUC
[8] = target: TvTIM1 I45A (Trichomonas vaginalis) (UniProt A2EGX9); assay: SEC; gel filtration at 7 mg/ml (~260 μM) in Tris pH 7.4, 100 mM NaCl; dimer to monomers
[9] = target: the molecule itself; assay: as above
[10] = target: the molecule itself; assay: AUC; sedimentation velocity, 20°C, 129,024 rcf, absorbance at 280 nm, c(s) with SEDFIT; protein 7 to 35 μM, no ligand

## TvTIM1 I45G (from UniProt A2EGX9) (enzyme)
[1]
  Kcat/Km (substrate DGAP, coupled assay, 25°C; enzyme at 5 nM): 40800 M⁻¹ s⁻¹
[2]
  percent of the total protein in the dimer peak: 6%

## TvTIM1 I45F (from UniProt A2EGX9) (enzyme)
[3]
  Kcat/Km (substrate DGAP, coupled assay, 25°C; enzyme at 10 nM): 33300 M⁻¹ s⁻¹

## TvTIM1 I45Y (from UniProt A2EGX9) (enzyme)
[4]
  Kcat/Km (substrate DGAP, coupled assay, 25°C; enzyme at 12 nM): 12200 M⁻¹ s⁻¹

## TvTIM1 I45G-Q52C double mutant (from UniProt A2EGX9 1-252) (enzyme)
[5]
  Kcat/Km of I45G-Q52C before cross-linking (substrate DGAP, coupled assay, 25°C): 39700 M⁻¹ s⁻¹
  Kcat/Km of the purified cross-linked I45G-Q52C dimer (substrate DGAP, coupled assay, 25°C): 2.5e+06 M⁻¹ s⁻¹

## TvTIM1 I45A (from UniProt A2EGX9) (enzyme)
[6]
  Kcat/Km (substrate DGAP, coupled assay, 25°C; enzyme at 2 nM): 198000 M⁻¹ s⁻¹
[7]
  percent dimer with 20 μM PGH: 17%
  percent dimer with 250 μM PGH: 38%
  percent dimer with 600 μM PGH: 38%
  percent dimer with 1000 μM PGH: 44%
  percent dimer with 2000 μM PGH: 46%
[8]
  percent of the total injected protein in the dimer peak: 13%
  percent of the total protein in the dimer peak: 3%

B1: TvTIM1 I45V (enzyme)
chain: MRTFFVGGNWKANPKTVEEAEKLIEMLNGAKVEGNVEVVVAAPFVFLPTLQQKLRKDWKVSAENVFTKPNGAFTGEVTVPMIKSFGIEWTILGHSERRDILKEDDEFLAAKAKFALENGMKIIYCCGEHLSEREAGKASEFVSAQIEKMIPAIPAGKWDDVVIAYEPIWAIGTGKVASTQDAQEMCKVIRDILAAKVGADIANKVRILYGGSVKPNNCNELAACPDVDGFLVGGASLEPGFINIVNSNVHSK
[9]
  stoichiometry N: 2

B2: Triosephosphate isomerase 1 from Trichomonas vaginalis, wild type (enzyme, UniProt A2EGX9 1-252, looked up)
chain: MRTFFVGGNWKANPKTVEEAEKLIEMLNGAKVEGNVEVVVAAPFIFLPTLQQKLRKDWKVSAENVFTKPNGAFTGEVTVPMIKSFGIEWTILGHSERRDILKEDDEFLAAKAKFALENGMKIIYCCGEHLSEREAGKASEFVSAQIEKMIPAIPAGKWDDVVIAYEPIWAIGTGKVASTQDAQEMCKVIRDILAAKVGADIANKVRILYGGSVKPNNCNELAACPDVDGFLVGGASLEPGFINIVNSNVHSK
notes: triosephosphate isomerase TvTIM1 of Trichomonas vaginalis; Homodimer in solution (gel filtration, AUC); the rows are of one chain with another; also called TvTIM1; TIM1WT
[10]
  stoichiometry N: 2

B3: TvTIM1 I45L (enzyme)
chain: MRTFFVGGNWKANPKTVEEAEKLIEMLNGAKVEGNVEVVVAAPFLFLPTLQQKLRKDWKVSAENVFTKPNGAFTGEVTVPMIKSFGIEWTILGHSERRDILKEDDEFLAAKAKFALENGMKIIYCCGEHLSEREAGKASEFVSAQIEKMIPAIPAGKWDDVVIAYEPIWAIGTGKVASTQDAQEMCKVIRDILAAKVGADIANKVRILYGGSVKPNNCNELAACPDVDGFLVGGASLEPGFINIVNSNVHSK
[9]
  stoichiometry N: 2
